Source: PMC3942486, “The Ansamycin Antibiotic, Rifamycin SV, Inhibits BCL6 Transcriptional Repression and Forms a Complex with the BCL6-BTB/POZ Domain” (PLoS ONE, 2014)

Target: BCL6-POZ domain (residues 7 to 128 of human BCL6, C8Q, C67R, C84N) (human, UniProt P41182 7-128, cysteine8 mutated to glutamine | cysteine67 mutated to arginine | cysteine84 …)
Experiment: fluorescence polarisation; fixed concentration of BODIPY TMR-labelled SMRT peptide, increasing concentration of BCL6-POZ domain; PBS, 0.05% (v/v) Triton X-100, 0.1 mg/mL BSA; room temperature; triplicate; one-site binding (hyperbola) fit
Details: both partners purified

Kd [µM]	Binder
11	LVATVKEAGRSIXEIPR (1-naphthylalanine in place of histidine1426; BODIPY TMR dye coupled via the amino-terminal cysteine) [1-naphthyl-SMRT peptide, labelled with BODIPY TMR]
154	LVATVKEAGRSIXEIPR (2-naphthylalanine in place of histidine1426; BODIPY TMR dye coupled via the amino-terminal cysteine) [2-naphthyl-SMRT peptide, labelled with BODIPY TMR]
